The values below come from patent publication US20220348651A1, “ENTPD2 ANTIBODIES, COMBINATION THERAPIES, AND METHODS OF USING THE ANTIBODIES AND COMBINATION THERAPIES” (Novartis AG, priority 2019, published 2022).

The target of one experiment is T1, human ENTPD2 (Homo sapiens, UniProt Q9Y5L3).
T1 construct: residues 29-462 of human or cyno ENTPD2 were cloned into expression vector; GP67 signal peptide (N); made in house; host or cells: High Five (Trichoplusia ni) insect cells, baculovirus
T1 sequence (Q9Y5L3 29-462): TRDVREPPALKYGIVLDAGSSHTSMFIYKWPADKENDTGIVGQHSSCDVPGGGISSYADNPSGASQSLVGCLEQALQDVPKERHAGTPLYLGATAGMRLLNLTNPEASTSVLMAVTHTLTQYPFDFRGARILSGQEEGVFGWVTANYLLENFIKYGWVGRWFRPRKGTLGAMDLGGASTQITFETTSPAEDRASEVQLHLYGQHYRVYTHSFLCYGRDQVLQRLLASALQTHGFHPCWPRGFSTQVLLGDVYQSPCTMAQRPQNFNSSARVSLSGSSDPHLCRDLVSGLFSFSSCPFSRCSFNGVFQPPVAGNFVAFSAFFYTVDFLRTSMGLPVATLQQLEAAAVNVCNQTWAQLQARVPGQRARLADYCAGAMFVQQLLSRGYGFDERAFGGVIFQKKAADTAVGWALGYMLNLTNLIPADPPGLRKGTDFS
Put plainly: Biacore (SPR) affinity to human ENTPD2 ECD. It is filed as binding. The note with it: 25° C. The procedure:
(§1) Biacore Screening: Affinity was measured by determining the kinetic rate constants using surface plasmon resonance (SPR) on a Biacore T200 or T100 with the T200 sensitivity upgrade instrument (Biacore, GE Healthcare). Antibodies were captured on CM5 sensor chips (Biacore, GE Healthcare) prepared with a mouse anti-human IgG Fc antibody (ThermoFisher catalogue #05-4200) amine coupled to the surface. […] ENTPD2 analytes were allowed to associate for 180 s and dissociate for up to 1800 s depending on the off-rate of the antibody at a flow rate of 30 μL/min. The running buffer was PBS pH 7.2 (prepared from a Corning 10X stock, cat#46-013-CM)+0.05% Tween 20. Regeneration was accomplished with 30 s injections of 3 or 4 M MgCl2 to remove all the captured antibody and remaining complex from the surface, after which fresh antibody was captured. The raw data were analyzed using Biacore T200 Evaluation Software version 1.0 and fit to a 1:1 binding model, with all parameters set to fit globally except for RI, which was set to fit locally.

Experiment [1] deals with cynomologus (cyno) ENTPD2. Put plainly: Biacore (SPR) affinity to cyno ENTPD2 ECD. The experiment is classed as binding, cynomolgus monkey. Particulars: 25° C. How it is done:
as §1

In another experiment the target is T2, mouse ENTPD2 (Mus musculus, UniProt O55026).
T2 construct: residues 29-462 of mouse or rat ENTPD2 (the extracellular domain); mouse IgK signal peptide (N); His6; made in house; host or cells: FreeStyle 293-F cells, transient transfection
T2 sequence (O55026 29-462): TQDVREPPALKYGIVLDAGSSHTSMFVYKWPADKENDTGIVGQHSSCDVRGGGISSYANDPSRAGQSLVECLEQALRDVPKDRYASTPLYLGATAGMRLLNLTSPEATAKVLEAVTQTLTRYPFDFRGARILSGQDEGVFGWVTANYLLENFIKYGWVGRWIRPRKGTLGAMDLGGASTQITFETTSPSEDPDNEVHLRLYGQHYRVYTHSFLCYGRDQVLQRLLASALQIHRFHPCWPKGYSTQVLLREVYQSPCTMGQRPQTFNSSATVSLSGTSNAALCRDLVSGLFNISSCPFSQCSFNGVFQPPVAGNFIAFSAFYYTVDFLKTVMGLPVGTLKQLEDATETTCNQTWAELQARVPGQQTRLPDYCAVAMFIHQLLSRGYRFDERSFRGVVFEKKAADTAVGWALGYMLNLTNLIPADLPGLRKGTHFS
Put plainly: Antibody specificity: binding to mouse ENTPD2. The note with it: for BIACore KD: Mouse ENTPD2. The source says: Antibody specificity for mAbl-mAblO was confirmed. […] Antibodies mAb8, mAb9, and mAb10 show weak affinity to mouse ENTPD2. None of the selected antibodies bind to rat ENTPD2.

cynomologus (cyno) ENTPD2, sequence (as listed by the source): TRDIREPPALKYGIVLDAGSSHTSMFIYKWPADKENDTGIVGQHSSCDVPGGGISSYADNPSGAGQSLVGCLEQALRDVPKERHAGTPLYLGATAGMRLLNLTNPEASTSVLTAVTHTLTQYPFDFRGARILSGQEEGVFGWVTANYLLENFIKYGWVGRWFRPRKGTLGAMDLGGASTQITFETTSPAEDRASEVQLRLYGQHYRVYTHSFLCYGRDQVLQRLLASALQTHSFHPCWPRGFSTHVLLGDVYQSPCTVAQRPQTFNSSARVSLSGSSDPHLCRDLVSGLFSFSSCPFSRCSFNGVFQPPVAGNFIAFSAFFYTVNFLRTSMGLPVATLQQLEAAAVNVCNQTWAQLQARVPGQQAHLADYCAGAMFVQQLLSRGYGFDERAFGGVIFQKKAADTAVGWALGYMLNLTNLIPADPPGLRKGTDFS

B1: mAb8: anti-human ENTPD2 antibody of Table 1; VH SEQ ID NO: 91, VL SEQ ID NO: 102 (antibody, V domains shown)
VH: QVQLQQSGPGLVKPSQTLSLTCAISGDSVSSSSAAWNWIRQSPSRGLEWLGRIYYRSKWYNDYAVSVKSRITINPDTSKNQFSLQLNSVTPEDTAVYYCARGSYVTSSYEGFDYWGQGTLVTVSS
VL: SYELTQPLSVSVALGQTARITCSGDNLPEKYAYWYQQKPGQAPVLVIYDDNKRPSGIPERFSGSNSGNTATLTISRAQAGDEADYYCQSYGKWGWTWVFGGGTKLTVL
In the experiment with human ENTPD2, B1 came in with a ka of 290000 M⁻¹ s⁻¹ and a kd of 0.00094 s⁻¹. In experiment [1], this molecule came in with a ka of 300000 M⁻¹ s⁻¹ and a kd of 0.024 s⁻¹. In the experiment with mouse ENTPD2, the “affinity / cross-reactivity to mouse ENTPD2” value (shortened to “affinity / cross-reactivity”) is “weak affinity” and the “BIACore KD” value is “Weak binding”.

B2: mAb4: humanized anti-human ENTPD2 antibody from mAb16; VH SEQ ID NO: 46, VL SEQ ID NO: 57 (antibody, V domains shown)
VH: QIQLQESGPGLVKPSQTLSLTCTVSGYSITSGYYWNWIRQHPGKGLEWIGYISYDADNNYNPSLKNRVTISRDTSKNQFSLKLSSVTAADTAVYYCAGGYYRYGLGSYRGSYYYVMDYWGQGTTVTVSS
VL: ETVLTQSPATLSVSPGERATISCKASQSVDYEGHSYMNWYQQKPGQAPRLLIYAASNLESGIPARFSGSGSGTDFTLTISSVEPEDAATYYCQQSNEDPPTFGGGTKLEIK
Take B2: in the experiment with human ENTPD2, the ka was determined as 300000 M⁻¹ s⁻¹ and the kd came out at 0.00022 s⁻¹. In addition, in experiment [1], the ka is 140000 M⁻¹ s⁻¹ and the kd is 0.0057 s⁻¹. Moreover, in the experiment with mouse ENTPD2, the “BIACore KD” value is on record as “No binding”.

B3: mAb5: humanized anti-human ENTPD2 antibody from mAb16; VH SEQ ID NO: 46, VL SEQ ID NO: 64 (antibody, V domains shown)
VH: QIQLQESGPGLVKPSQTLSLTCTVSGYSITSGYYWNWIRQHPGKGLEWIGYISYDADNNYNPSLKNRVTISRDTSKNQFSLKLSSVTAADTAVYYCAGGYYRYGLGSYRGSYYYVMDYWGQGTTVTVSS
VL: ETVLTQSPATLSVSPGERATISCKASQSVDYDGNSYMNWYQQKPGQAPRLLIYAASNLESGIPARFSGSGSGTDFTLTISSVEPEDAATYYCQQSNEDPPTFGGGTKLEIK
For the molecule B3, the ka with human ENTPD2 amounted to 270000 M⁻¹ s⁻¹; in experiment [1] it was 290000 M⁻¹ s⁻¹. In addition, the kd in the experiment with human ENTPD2 came out at 0.00016 s⁻¹; in experiment [1] it was 0.003 s⁻¹. Besides, the “BIACore KD” value in the experiment with mouse ENTPD2 is given as “No binding”.

B4: mAb9: anti-human ENTPD2 antibody of Table 1; VH SEQ ID NO: 115, VL SEQ ID NO: 125 (antibody, V domains shown)
VH: QVQLVQSGAEVKKPGSSVKVSCKASGGTFDSYAVSWVRQAPGQGLEWMGRIVPWLGHTQYAQKFQGRVTITADESTSTAYMELSSLRSEDTAVYYCARESPGYRYSFDVWDQGTLVTVSS
VL: SYELTQPLSVSVALGQTARITCSGDAIGEKYVYWYQQKPGQAPVLVIYDDNNRPSGIPERFSGSNSGNTATLTISRAQAGDEADYYCASYDLQQARWVFGGGTKLTVL
For B4, the results for the ka (with human ENTPD2; in experiment [1]) were 380000 M⁻¹ s⁻¹ and 990000 M⁻¹ s⁻¹, respectively. Further, the values for the kd (in the experiment with human ENTPD2; in experiment [1]) were 0.0003 s⁻¹ and 0.021 s⁻¹, respectively. Besides, the “affinity / cross-reactivity” value with mouse ENTPD2 is on record as “weak affinity”.

B5: mAb10: anti-human ENTPD2 antibody of Table 1; VH SEQ ID NO: 132, VL SEQ ID NO: 125 (antibody, V domains shown)
VH: QVQLVQSGAEVKKPGSSVKVSCKASGGTFDSYAVSWVRQAPGQGLEWMGRIVPWLGFTRYAQKFQGRVTITADESTSTAYMELSSLRSEDTAVYYCARESPGYRYSFDVWDQGTLVTVSS
VL: SYELTQPLSVSVALGQTARITCSGDAIGEKYVYWYQQKPGQAPVLVIYDDNNRPSGIPERFSGSNSGNTATLTISRAQAGDEADYYCASYDLQQARWVFGGGTKLTVL
Regarding B5, in the experiment with human ENTPD2, the ka was found to be 340000 M⁻¹ s⁻¹ and the kd came out at 0.00024 s⁻¹. In experiment [1], the ka is 1.2e+06 M⁻¹ s⁻¹ and the kd stood at 0.018 s⁻¹. For the same molecule, in the experiment with mouse ENTPD2, the “affinity / cross-reactivity” value is listed as “weak affinity” and the “BIACore KD” value was “Weak binding”.

B6: mAb3: humanized anti-human ENTPD2 antibody from mAb17; VH SEQ ID NO: 33, VL SEQ ID NO: 29 (antibody, V domains shown)
VH: QVQLVQSGAEVVKPGASVKISCKASGYTFTDYNMDWVKQAPGQRLEWIGDINPKYDISTYNQQFKGKATITVDTSASTAYMELSSLRSEDTAVYYCARRGFFLYYGINYYYFDVWGQGTLVTVSS
VL: EIVLTQSPATLSASPGERITLSCSASSSVSYIHWYQQKPGQAPRLLIYSTSNLASGIPARFSGSGSGTFYTLTISSVEPEDAAVYYCHQWSSYPWTFGGGTKLEIK
In the experiment with human ENTPD2, B6 gave a ka of 130000 M⁻¹ s⁻¹ and a kd of 0.00016 s⁻¹. In addition, in experiment [1], the ka stood at 450000 M⁻¹ s⁻¹ and the kd is 0.00098 s⁻¹. For the same molecule, in the experiment with mouse ENTPD2, the “BIACore KD” value is “No binding”.

B7: mAb2: humanized anti-human ENTPD2 antibody from mAb17; VH SEQ ID NO: 25, VL SEQ ID NO: 29 (antibody, V domains shown)
VH: QVQLVQSGAEVVKPGASVKISCKASGYTFTDYNMDWVKQAPGQRLEWIGDINPKYDISTYNQQFKGKATITVDKSASTAYMELSSLRSEDTAVYYCARRGFFLYYGINYYYFDVWGQGTLVTVSS
VL: EIVLTQSPATLSASPGERITLSCSASSSVSYIHWYQQKPGQAPRLLIYSTSNLASGIPARFSGSGSGTFYTLTISSVEPEDAAVYYCHQWSSYPWTFGGGTKLEIK
In the experiment with human ENTPD2, B7 displayed a Kd of 1.7 nM, a ka of 110000 M⁻¹ s⁻¹ and a kd of 0.00018 s⁻¹. In experiment [1], this molecule registered a Kd of 2.8 nM, a ka of 430000 M⁻¹ s⁻¹ and a kd of 0.0012 s⁻¹. In addition, the “BIACore KD” value in the experiment with mouse ENTPD2 is recorded as “No binding”.
